Measured values from patent US20200316217A1.

What was measured:
Test in all cases: cell-based or functional assay
[1] = biological target: PTHR16E (human) (UniProt Q03431)
[2] = biological target: PTHR1GFP (human) (UniProt Q03431)
[3] = biological target: PTHR1YFPΔECD (human)
[4] = biological target: Human PTHR1 WT (human) (UniProt Q03431)
[5] = biological target: rat PTHR1 (rat) (UniProt P25961)
[6] = biological target: human PTHR2 (human) (UniProt P49190)
Sequence of human PTHR2 (human) (P49190 25-550): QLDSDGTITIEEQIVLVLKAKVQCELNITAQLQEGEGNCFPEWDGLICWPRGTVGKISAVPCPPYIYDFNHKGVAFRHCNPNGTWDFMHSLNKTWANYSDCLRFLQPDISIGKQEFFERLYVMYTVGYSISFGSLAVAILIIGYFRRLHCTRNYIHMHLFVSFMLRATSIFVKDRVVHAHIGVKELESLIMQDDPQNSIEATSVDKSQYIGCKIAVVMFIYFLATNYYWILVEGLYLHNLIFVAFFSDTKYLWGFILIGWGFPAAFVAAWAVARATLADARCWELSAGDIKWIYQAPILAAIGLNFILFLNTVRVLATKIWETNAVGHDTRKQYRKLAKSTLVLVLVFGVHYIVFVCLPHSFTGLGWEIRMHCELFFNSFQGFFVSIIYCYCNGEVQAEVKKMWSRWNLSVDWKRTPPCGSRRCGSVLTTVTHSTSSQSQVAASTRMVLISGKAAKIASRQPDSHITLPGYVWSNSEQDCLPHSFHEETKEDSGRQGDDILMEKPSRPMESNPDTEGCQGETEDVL

Sequence of rat PTHR1 (rat) (P25961 27-591): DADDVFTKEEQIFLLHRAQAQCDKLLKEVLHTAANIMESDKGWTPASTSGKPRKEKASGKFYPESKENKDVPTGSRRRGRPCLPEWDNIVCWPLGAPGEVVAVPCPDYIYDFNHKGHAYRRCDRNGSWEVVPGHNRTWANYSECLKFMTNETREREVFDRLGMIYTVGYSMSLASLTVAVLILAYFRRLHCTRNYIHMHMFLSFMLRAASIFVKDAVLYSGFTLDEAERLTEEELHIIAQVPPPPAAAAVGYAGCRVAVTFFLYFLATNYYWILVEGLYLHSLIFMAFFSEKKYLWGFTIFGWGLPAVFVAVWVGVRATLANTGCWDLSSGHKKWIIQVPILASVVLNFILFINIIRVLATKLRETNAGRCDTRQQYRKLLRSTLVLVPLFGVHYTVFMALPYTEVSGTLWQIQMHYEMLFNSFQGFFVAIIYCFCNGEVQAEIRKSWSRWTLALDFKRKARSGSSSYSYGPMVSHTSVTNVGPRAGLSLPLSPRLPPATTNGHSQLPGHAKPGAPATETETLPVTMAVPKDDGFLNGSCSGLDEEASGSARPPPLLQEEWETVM

Substance | Stimulation of receptor (cAMP), EC50 [1] | cAMP induction EC50 [1] | cAMP induction EC50 [2] | Stimulation of receptor (cAMP), EC50 [3] | cAMP induction EC50 [3] | Stimulation of receptor (cAMP), EC50 [4] | cAMP induction EC50 [4] | cAMP induction Max (normalized) [1] | cAMP induction Max (normalized) [2] | cAMP induction Max (normalized) [3] | cAMP induction EC50 [5] | cAMP induction Max (normalized) [4] | further results
PTH(1-9) (peptide) | > 10000 nM | > 10000 nM | > 10000 nM | > 10000 nM | > 10000 nM | > 10000 nM | > 10000 nM | – | – | – | – | – | –
PTH(1-10) (peptide) | 5080 nM | 5080 nM | 2550 nM | 3840 nM | 3840 nM | 3120 nM | 3120 nM | 1.09 normalized | 1.16 normalized | 1.12 normalized | 2470 nM | 1.03 normalized | cAMP induction Max (normalized) [5]: 1.09 normalized
PTH(1-11) (peptide) | 94 nM | 94 nM | 79 nM | 246 nM | 246 nM | 516 nM | 516 nM | 1.09 normalized | 1.1 normalized | 1.02 normalized | 120 nM | 1.01 normalized | half maximal stimulation (cAMP-sensitive luciferase) [2]: 200 nM; cAMP induction Max (normalized) [5]: 1.02 normalized; cAMP induction EC50 [6]: > 100000 nM; cAMP induction Max (normalized) [6]: 0.36 normalized; cAMP induction, percent at 100 uM [6]: 20 % at 100 µM

The next lines start with results.

Stimulation of receptor (cAMP), EC50 [1] | cAMP induction EC50 [1] | cAMP induction EC50 [2] | Stimulation of receptor (cAMP), EC50 [3] | cAMP induction EC50 [3] | Stimulation of receptor (cAMP), EC50 [4] | cAMP induction EC50 [4] | cAMP induction Max (normalized) [1] | cAMP induction Max (normalized) [2] | cAMP induction Max (normalized) [3] | cAMP induction EC50 [5] | cAMP induction Max (normalized) [4] | Substance | further results
3.4 nM | 3.4 nM | 2.3 nM | 1.1 nM | 1.1 nM | 4.3 nM | 4.3 nM | 1.06 normalized | 1.09 normalized | 0.96 normalized | – | 1.01 normalized | PTH(1-14) (peptide) | cAMP induction EC50 [6]: 924 nM; cAMP induction Max (normalized) [6]: 1.14 normalized
– | – | > 100 nM | – | – | – | – | – | – | 0.38 normalized | – | – | VHHGFP-PTH(1-9) | Stimulation of receptor (cAMP), percent activation (% activation at 100 nM) [3]: 40; cAMP induction, percent activation (% activation at 100 nM) [3]: 40
– | – | > 100 nM | 0.46 nM | 0.46 nM | – | – | – | – | 1.06 normalized | – | – | VHHGFP-PTH(1-10) | potency, fold against PTH(1-10) [3]: 7800 fold
> 100 nM | > 100 nM | 8 nM | 0.14 nM | 0.14 nM | > 100 nM | > 100 nM | – | 1.1 normalized | 1.19 normalized | > 100 nM | – | VHHGFP-PTH(1-11) | activity, fold enhancement against PTH(1-11) [3]: > 20000 fold; activation of PTHR1 [4]: > 100 nM
> 100 nM | > 100 nM | 1.8 nM | 0.58 nM | 0.58 nM | > 100 nM | > 100 nM | – | 1.21 normalized | 1.16 normalized | – | – | VHHGFP-PTH(1-14) | –
